Laboratory results published in the supplement of paper PMC10126150.
± gives the standard deviation of the averaged measurements.

System: ATP
Experiment: switch fluorescence ratio, 500 uM ATP over buffer (Cy3 cluster intensity, sum of 5 cycles each) (fold (ratio)); higher = stronger signal-on switching upon ATP binding; sequences stand for … in TCGTCGGCAGCGTCAGATGTGTATAAGAGACAGTTTTTTTTTTTTTTTTTTTTTTTTT…TC
Settings: aptamer strand: ATP DNA aptamer (quencher-CACCTGGGGGAGTATTGCGGAGGAAGG + anchor), 100 nM annealed; ATP concentration: 500 uM
How it was run: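 Switching-strand clusters labelled with Cy3 on a modified Illumina MiSeq flow-cell were annealed to 100 nM quencher-labelled ATP aptamer, imaged in selection buffer, and re-imaged after 15 min with 500 uM ATP at 22 °C. This was done over five cycles with NaOH stripping and re-annealing in between. The fluorescence ratio is summed target-cycle over summed buffer-cycle Cy3 intensity per cluster, averaged per switch-domain sequence, excluding clusters outside 100-1000 RFU.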
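Further: ATP exposure 15 min at 22 °C before imaging.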

Sequence | switch fluorescence ratio
TGGCGCCACT | 0.976 ± 0.013
TGGCGCCGAT | 0.9608 ± 0.0026
TGGCGCCGGG | 0.9958 ± 0.0091
TGGCGCTTGT | 0.978 ± 0.028
TGGCGGAAGG | 0.999 ± 0.044
TGGCGGACGT | 1 ± 0.0081
TGGCGGAGTC | 1 ± 0.022
TGGCGGCCAC | 1.04 ± 0.15
TGGCGGGGTT | 0.986 ± 0.022
TGGCGGTACG | 1.02 ± 0.069
TGGCGGTTGC | 0.955 ± 0.013
TGGCGTTGAT | 0.984 ± 0.019
TGGCGTTTGG | 1 ± 0.015
TGGCGTTTTT | 1.01 ± 0.023
TGGCTGGAAG | 0.988 ± 0.027
TGGCTGGGTT | 1 ± 0.054
TGGCTTACAT | 1.0268 ± 0.00039
TGGCTTAGGA | 0.979 ± 0.012
TGGCTTATTT | 0.988 ± 0.031
TGGCTTTGCT | 0.962 ± 0.015
TGGCTTTGGA | 0.988 ± 0.022
TGGCTTTGTT | 0.9888 ± 0.0041
TGGCTTTTAT | 0.95149 ± 0.00041
TGGCTTTTTG | 0.9898 ± 0.0035
TGGCTTTTTT | 0.998 ± 0.027

Sequence | switch fluorescence ratio
TGGGAAAAAC | 1.09 ± 0.1
TGGGAAAACT | 1.07 ± 0.12
TGGGAAAATT | 1 ± 0.033
TGGGAAAGCT | 1.256 ± 0.0016
TGGGAACACT | 1.01 ± 0.033
TGGGAACTCG | 0.99483 ± 0.00048
TGGGAAGAGC | 1.025 ± 0.0038
TGGGAATGCG | 1.013 ± 0.0026
TGGGAATTCC | 1 ± 0.011
TGGGAATTGA | 0.9976 ± 0.0057
TGGGACAGGG | 1.03 ± 0.088
TGGGACATGC | 0.987 ± 0.0088
TGGGACATTT | 1.04 ± 0.057
TGGGACCCGT | 1.04 ± 0.038
TGGGACCGGC | 0.98 ± 0.021
TGGGACGATC | 1.05 ± 0.028
TGGGACGTTT | 0.934 ± 0.046
TGGGACTATT | 1.01 ± 0.076
TGGGACTCGA | 0.991 ± 0.035
TGGGACTTAG | 1.017 ± 0.0022
TGGGACTTTT | 1.01 ± 0.053
TGGGAGAAAC | 1.09 ± 0.091
TGGGAGAGT | 1.011 ± 0.0034
TGGGAGAGTG | 0.994 ± 0.0055
TGGGAGGAAT | 0.988 ± 0.037

Sequence | switch fluorescence ratio
TGGGAGGAGT | 1 ± 0.048
TGGGAGGATT | 1 ± 0.027
TGGGAGGCAT | 1.01 ± 0.027
TGGGAGGGTC | 1.12 ± 0.14
TGGGAGGGTT | 1.12 ± 0.25
TGGGAGTATA | 1 ± 0.032
TGGGAGTTGT | 0.989 ± 0.011
TGGGATAGGT | 1.01 ± 0.06
TGGGATAGTG | 1 ± 0.046
TGGGATATAT | 0.954 ± 0.034
TGGGATATCT | 1 ± 0.023
TGGGATCCAT | 0.972 ± 0.015
TGGGATGAAG | 0.982 ± 0.01
TGGGATGCTT | 0.981 ± 0.011
TGGGATGGGC | 1.05 ± 0.14
TGGGATGGGT | 1.02 ± 0.092
TGGGATGTG | 0.9906 ± 0.0049
TGGGATTAGG | 0.969 ± 0.03
TGGGATTCCT | 1.03 ± 0.073
TGGGATTGTA | 0.987 ± 0.024
TGGGCAATGG | 1.833 ± 0.018
TGGGCAGGGC | 1.04 ± 0.058
TGGGCCATGT | 0.9791 ± 0.0065
TGGGCCTTGT | 1.023 ± 0.0033
TGGGCGGTA | 0.963 ± 0.026

Sequence | switch fluorescence ratio
TGGGCGTAG | 0.993 ± 0.011
TGGGCGTTGC | 1.01 ± 0.018
TGGGCTAATT | 1.02 ± 0.04
TGGGCTACTG | 1.04 ± 0.04
TGGGCTGGGG | 1.04 ± 0.023
TGGGCTTCAT | 0.998 ± 0.028
TGGGCTTTAG | 0.967 ± 0.041
TGGGGAAAAT | 1.033 ± 0.0065
TGGGGAAAGC | 0.983 ± 0.014
TGGGGAAGTG | 0.987 ± 0.025
TGGGGAATCG | 1.01 ± 0.046
TGGGGACAAT | 0.987 ± 0.018
TGGGGACCCA | 0.991 ± 0.018
TGGGGACCGT | 1 ± 0.03
TGGGGACGAC | 1.02 ± 0.063
TGGGGACTAT | 1.02 ± 0.012
TGGGGAGTAA | 1.015 ± 0.0092
TGGGGAGTGT | 0.9849 ± 0.0076
TGGGGATAAT | 1.01 ± 0.028
TGGGGATAGT | 0.968 ± 0.018
TGGGGATATA | 1.029 ± 0.0093
TGGGGATATT | 0.9965 ± 0.0016
TGGGGATGTA | 0.976 ± 0.014
TGGGGCAAAT | 1.01 ± 0.034
TGGGGCAATT | 1.1 ± 0.06

Sequence | switch fluorescence ratio
TGGGGCACCC | 0.985 ± 0.01
TGGGGCATCG | 1 ± 0.029
TGGGGCCGCG | 1.048 ± 0.0092
TGGGGCGCCG | 1.13 ± 0.18
TGGGGCGCTT | 1 ± 0.033
TGGGGCTATA | 0.995 ± 0.037
TGGGGCTTTA | 1.06 ± 0.031
TGGGGGAAAT | 1.25 ± 0.74
TGGGGGAAGC | 0.984 ± 0.026
TGGGGGACTG | 1.05 ± 0.054
TGGGGGAGCA | 0.9811 ± 0.0094
TGGGGGATCA | 0.978 ± 0.029
TGGGGGATCT | 1 ± 0.038
TGGGGGCGGA | 1.01 ± 0.032
TGGGGGCGTA | 0.9641 ± 0.0025
TGGGGGCTTT | 0.99 ± 0.023
TGGGGGGATT | 1.01 ± 0.045
TGGGGGGCCT | 0.991 ± 0.02
TGGGGGGCTA | 1.02 ± 0.056
TGGGGGGGAA | 0.999 ± 0.021
TGGGGGGGCA | 1 ± 0.012
TGGGGGGGGG | 1.02 ± 0.079
TGGGGGGTAT | 1 ± 0.03
TGGGGGTAAG | 0.989 ± 0.03
TGGGGGTATG | 1 ± 0.02

Sequence | switch fluorescence ratio
TGGGGGTGCC | 0.9758 ± 0.0037
TGGGGGTGTG | 1.04 ± 0.082
TGGGGGTTAT | 0.993 ± 0.042
TGGGGGTTCT | 1.02 ± 0.057
TGGGGTAAAA | 0.99 ± 0.0091
TGGGGTAAAT | 1.01 ± 0.017
TGGGGTAGAG | 0.97 ± 0.041
TGGGGTAGC | 0.9979 ± 0.0088
TGGGGTAGCC | 0.932 ± 0.029
TGGGGTAGCG | 0.998 ± 0.043
TGGGGTAGCT | 0.997 ± 0.015
TGGGGTAGGC | 1.02 ± 0.034
TGGGGTCAGC | 1.001 ± 0.0097
TGGGGTCGCT | 0.9829 ± 0.001
TGGGGTTAAG | 0.977 ± 0.025
TGGGGTTAAT | 0.997 ± 0.028
TGGGGTTAGT | 0.979 ± 0.014
TGGGGTTATT | 0.974 ± 0.0098
TGGGGTTCAG | 1.01 ± 0.019
TGGGGTTCTT | 0.993 ± 0.034
TGGGGTTGCG | 0.981 ± 0.032
TGGGGTTTAG | 0.99 ± 0.024
TGGGTAAAAA | 0.995 ± 0.014
TGGGTAAAGA | 0.981 ± 0.049
TGGGTAAGGG | 1.01 ± 0.03

Sequence | switch fluorescence ratio
TGGGTAATGG | 1.01 ± 0.038
TGGGTACGCA | 1.03 ± 0.027
TGGGTAGAAG | 0.9916 ± 0.0014
TGGGTAGGAG | 0.987 ± 0.025
TGGGTAGGGG | 0.985 ± 0.025
TGGGTAGTAC | 1.04 ± 0.039
TGGGTAGTAT | 0.977 ± 0.012
TGGGTATGG | 1.07 ± 0.072
TGGGTCAGTG | 1 ± 0.021
TGGGTCCGTG | 0.963 ± 0.033
TGGGTCGGGT | 0.9817 ± 0.0088
TGGGTCTTTT | 1.01 ± 0.054
TGGGTGACGG | 0.958 ± 0.036
TGGGTGAGAT | 1.01 ± 0.032
TGGGTGAGCT | 1.01 ± 0.036
TGGGTGAGGG | 1 ± 0.0037
TGGGTGATAT | 0.989 ± 0.018
TGGGTGCACG | 0.996 ± 0.057
TGGGTGCATG | 0.9897 ± 0.0049
TGGGTGCCGG | 0.929 ± 0.11
TGGGTGGCGA | 1.02 ± 0.043
TGGGTGGCGG | 0.945 ± 0.052
TGGGTGTCTG | 0.9826 ± 0.0043
TGGGTTACGA | 1.04 ± 0.035
TGGGTTAGAT | 0.976 ± 0.025

Sequence | switch fluorescence ratio
TGGGTTATAG | 0.9786 ± 0.0038
TGGGTTATGG | 0.972 ± 0.016
TGGGTTATTT | 1 ± 0.038
TGGGTTCGAG | 1.005 ± 0.0097
TGGGTTGGGT | 0.993 ± 0.022
TGGGTTGGTT | 1 ± 0.036
TGGGTTGTTG | 0.985 ± 0.038
TGGGTTTACG | 1.03 ± 0.029
TGGGTTTAGG | 1.02 ± 0.025
TGGGTTTGC | 0.98 ± 0.054
TGGGTTTGCT | 1.001 ± 0.0063
TGGGTTTGTA | 0.984 ± 0.019
TGGTAAAAAG | 1.025 ± 0.0047
TGGTAAAAGG | 0.991 ± 0.038
TGGTAAAGTA | 0.991 ± 0.02
TGGTACCTTG | 1.19 ± 0.26
TGGTACGGGT | 1.03 ± 0.011
TGGTAGAGAG | 0.9883 ± 0.0075
TGGTAGATT | 1.01 ± 0.046
TGGTAGCTGT | 1.01 ± 0.062
TGGTAGGATG | 0.964 ± 0.05
TGGTATCGGC | 0.992 ± 0.01
TGGTATTGCA | 0.999 ± 0.028
TGGTATTTTT | 0.991 ± 0.029
TGGTCAAAAA | 0.9972 ± 0.0036
